Source: US20060252697A1 (ANTYRA, published 2006)
Where no end group is shown, it is not given here.

What was measured:
[1] = target: rat growth hormone binding protein (rGHBP) (rat) (UniProt P16310); experiment: phage ELISA competition on rGHBP (100 ng/well); blocked: H5 phage
[2] = target: rat growth hormone binding protein (rGHBP) (rat) (UniProt P16310); experiment: TRFD competition on rGHBP-coated wells, vs. bGH
[3] = target: rat growth hormone binding protein (rGHBP) (rat) (UniProt P16310); experiment: TRFD competition on rGHBP-coated wells, vs. bP#418 (SEQ ID NO: 12)
[4] = target: rat growth hormone binding protein (rGHBP) (rat) (UniProt P16310); experiment: TRFD competition on rGHBP-coated wells, vs. bP#447 (SEQ ID NO: 11)
[5] = target: rat growth hormone binding protein (rGHBP) (rat) (UniProt P16310); experiment: TRFD, ED50 of specific binding of biotinylated ligand to rGHBP-coated wells
[6] = target: humanized rat growth hormone binding protein (‘hu’GHBP) (rat (humanized by one substitution)) (UniProt P16310); experiment: phage ELISA on ‘hu’GHBP-coated wells, no competitor
[7] = target: humanized rat growth hormone binding protein (‘hu’GHBP) (rat (humanized by one substitution)) (UniProt P16310); experiment: phage ELISA on ‘hu’GHBP-coated wells, +BSA (1 µM)
[8] = target: humanized rat growth hormone binding protein (‘hu’GHBP) (rat (humanized by one substitution)) (UniProt P16310); experiment: phage ELISA on ‘hu’GHBP-coated wells, competitor human GH (+hGH, 1 µM)
[9] = target: T1, rat growth hormone binding protein (rGHBP) (rat, UniProt P16310 19-265); experiment: phage ELISA competition on rGHBP (100 ng/well); synthetic H5 peptide against H5 phage
T1 construct: extracellular domain; also called rat GHBP; soluble rGHBP
T1 sequence (looked up): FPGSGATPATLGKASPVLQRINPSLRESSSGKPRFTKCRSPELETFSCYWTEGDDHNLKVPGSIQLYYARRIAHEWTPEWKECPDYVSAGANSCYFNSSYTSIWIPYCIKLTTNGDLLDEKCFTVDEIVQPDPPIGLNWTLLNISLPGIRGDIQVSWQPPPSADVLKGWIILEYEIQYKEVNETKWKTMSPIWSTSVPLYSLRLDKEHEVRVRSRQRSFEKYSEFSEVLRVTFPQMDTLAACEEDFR
Procedure: Wells were coated with rGHBP (100 ng/well) and blocked as described. […] Phage was detected with HRP-anti M13 phage antibody and reported at OD₄₀₅ as described.

[10] = target: T1, rat growth hormone binding protein …; experiment: BIAcore, bPeptide binding to rGHBP, appKD 2
[11] = target: T1, rat growth hormone binding protein …; experiment: phage ELISA competition on rGHBP (100 ng/well); synthetic peptide against H5 phage
Procedure: Wells were coated with rGHBP (100 ng/well) and blocked as described. […] The peptides included two lysine residues added to the C-terminus of the sequence shown. Phage binding was detected with HRP-anti M13 phage antibody. Number and sequence of competing peptides are detailed on the right of figure. Control binding=binding in absence of peptide.

[12] = target: T1, rat growth hormone binding protein …; experiment: BIAcore, bPeptide binding to rGHBP, appKD 1
[13] = target: T1, rat growth hormone binding protein …; experiment: phage ELISA, rGHBP 100 ng/well
Procedure: Alanine replacement for single or multiple amino acids is represented by “a” and for cysteine by “X”. FIG. 4A illustrates the binding of wild-type (WT) and mutant phage on wells coated with milk (2%), FcMAb (100 ng/well), rGHBP (100 ng/well), or MAb specific for the E-tag epitope (100 ng/well). FIG. 4B illustrates the ratio of mutant phage binding to rGHBP versus anti-E-tag MAb coated wells.
For this analysis, phage were input at 10¹⁰/well. Wild type (WT) and mutant phage were tested on wells coated with milk (2%), FcMAb (100 ng/well), rGHBP (100 ng/well), or MAb specific for the E-tag epitope (100 ng/well) (FIG. 4A). Detection with HRP-anti M13 phage antibody was done as described. In FIG. 4, alanine replacement for single or multiple amino acid is represented by “a” and for cysteine by “X”.

[14] = target: T1, rat growth hormone binding protein …; experiment: TRFD, ED50 of specific binding to rGHBP-coated wells
Procedure: (§1) rGHBP (50-200 μg/ml in 50 mM NaHCO₃) was coated onto low-fluorescence MaxiSorp (Nunc) plates (100 μl/well) overnight at 4° C. The plates were blocked with PBS containing 2% non-fat milk and 0.05% BSA for 2 hr at room temperature, followed by three PBS washes. […] Ten microliters of the 10× concentrated material was added to the plates and incubated at room temperature for 1 hr to overnight.
(§2) The plates were then washed five times with Tris-buffered saline (pH 7.5) containing 0.1% Tween-20 (TTBS). To each well, 100 μl of europium-labeled streptavidin in DELFIA assay buffer (100 mM Tris-HCl, pH 7.8; 150 mM NaCl; 0.5% BSA; 0.05% bovine Ig; 0.05% NaN3; 0.01% Tween-20) was added and incubated for 1.5 hr at room temperature. The plates were then washed five times with TTBS and tapped dry. Subsequently, 100 μl of DELFIA enhancement solution (100 mM acetone-potassium hydrogen phthalate, pH 3.2; 15 mM 2-naphtyltrifluoroacetate; 50 mM tri(n-octyl)-phosphine oxide; 0.1% Triton X-100) was added to each well, and the plates were shaken for 10 min at room temperature.

[15] = target: T1, rat growth hormone binding protein …; experiment: TRFD
[16] = target: T1, rat growth hormone binding protein …; experiment: TRFD, ED50 of specific binding of biotinylated ligand to rGHBP-coated wells
Procedure: Wells were coated with rGHBP (100 ng/well) overnight as described. ED₅₀ and IC₅₀ were calculated from analysis of specific bLigand binding to rGHBP. Competitors were added 1 hr prior to addition of bLigand as described.
as §1, §2

growth hormone (GH), species not stated (ligand)
IC50 (read off the curve) [1]: 5 nM | IC50 [2]: 5 nM | IC50 [3]: 2 nM | IC50 [4]: 0.4 nM

biotinylated growth hormone (bGH) (ligand)
EC50 [5]: 20 nM

B1: clone HH peptide (peptide)
peptide: DYKDALLHRSRCVRWGKWVCCLPPVGVGGAQANQGMSVQRFRHC
ELISA signal (unit not given) [6]: 0.37 | ELISA signal (unit not given) [7]: 0.37 | ELISA signal (unit not given) [8]: 0.35

B2: peptide #445 (peptide)
peptide: DYKDLCQRLGVGWPGWLAGWCA
modifications: cysteine pairing not given here; also: biotinylated in bP form, position not given here
ELISA signal (unit not given) [6]: 0.14 | ELISA signal (unit not given) [7]: 0.11 | ELISA signal (unit not given) [8]: 0.12

B3: GHBP-H5 peptide (H5WT) (peptide)
peptide: DYKDLCQSLGVTYPGWLAGWCA
modifications: cysteine pairing not given here; also: biotinylated in some formats, position not given here
notes: also called H5 phage
IC50 (read off the curve) [9]: ~1000 nM | Kd [10]: 3500 nM | IC50 (read off the curve) [11]: ~1000 nM | Kd [12]: 1300 nM

B4: X---C (first C crossed out) (peptide)
peptide: DYKDLAQSLGVTYPGWLAGWCA
notes: H5 phage mutant
binding result [13]: no binding (tested: 10^10 phage/well)

B5: peptide #447 (peptide)
peptide: DYKDLCQRLGVGWPGWLSGWCA
modifications: cysteine pairing not given here; also: biotinylated in bP form, position not given here
notes: H5 mutant from the secondary library, synthetic
EC50 [14]: 700 nM | Kd [10]: 2900 nM | fold better binding than H5WT or bP#445 [15]: 10 fold | EC50 [16]: 600 nM | IC50 (read off the curve) [11]: ~90 nM | Kd [12]: 160 nM

B6: peptide #418 (peptide)
peptide: DYKDLCQSWQVTWPGWLAGWCA
modifications: cysteine pairing not given here; also: biotinylated in bP form, position not given here
notes: H5 mutant from the secondary library (Y9 to W, L5 to W, G6 to E), synthetic
Kd [10]: 670 nM | fold better binding than H5WT or bP#445 [15]: 10 fold | EC50 [16]: 800 nM | IC50 (read off the curve) [11]: ~100 nM | Kd [12]: 150 nM

B7: X---X (both C crossed out) (peptide)
peptide: DYKDLAQSLGVTYPGWLAGWAA
notes: H5 phage mutant
binding result [13]: no binding (tested: 10^10 phage/well)

B8: peptide #443 (peptide)
peptide: DYKDLCQRLGVTWPGWLAGWCA
modifications: cysteine pairing not given here; also: biotinylated, position not given here
notes: H5 mutant, synthetic
Kd [10]: > 10000 nM | IC50 (read off the curve) [11]: ~400 nM | Kd [12]: 600 nM
